± gives the standard deviation of the averaged measurements.
Tested on: Saccharomyces cerevisiae
Assay: protein stability index of tFT-peptide fusion (C-terminal peptide) (PSI (0-1 scale)); higher = more stable (slower turnover)
Details: temperature: 30 C
Description: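 MPS profiling in S. cerevisiae of the yeast C-terminome library: the last 12 aa of each annotated ORF are fused to the C-terminus of a sfGFP-mCherry timer, after a GGGS linker. Cells are FACS-sorted into 8 mCherry/sfGFP bins and deep-sequenced. PSI runs from 0 (unstable) to 1 (stable); wild type and das1Δ backgrounds, two technical replicates each.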

[1] = genetic background: das1 deletion

Sequence | protein stability index [1] | protein stability index (genetic background: wild type)
ILNCVGSAKISG [YGR291C C-terminal 12 aa] | 0.668 ± 0.025 | 0.654 ± 0.02
ILRQYFTDLASS [REA1 C-terminal 12 aa] | 0.675 ± 0.026 | 0.696 ± 0.041
IMPDRFDYENYY [TMS1 C-terminal 12 aa] | 0.739 ± 0.0052 | 0.698 ± 0.0097
INDWLSSWKRSK [CRR1 C-terminal 12 aa] | 0.756 ± 0.017 | 0.727 ± 0.021
INSQTMTVTTAL [VHC1 C-terminal 12 aa] | 0.685 ± 0.039 | 0.69051 ± 0.00012
IPAYKKHGIQKN [OSH7 C-terminal 12 aa] | 0.694 ± 0.012 | 0.693 ± 0.038
IQTINEVRTNYM [RSE1 C-terminal 12 aa] | 0.69 ± 0.041 | 0.744 ± 0.11
IRDILKLGHPTR [GYP8 C-terminal 12 aa] | 0.699 ± 0.043 | 0.666 ± 0.034
IREFPEYFAAQA [RPL10 C-terminal 12 aa] | 0.682 ± 0.015 | 0.671 ± 0.03
IRKYGYNLAAYT [YLR462W C-terminal 12 aa] | 0.6649 ± 0.00076 | 0.6563 ± 0.0049
IRRYPFLWIPFL [YMR316C-B C-terminal 12 aa] | 0.709 ± 0.04 | 0.147 ± 0.015
IRYSMPYRLASN [YLR264C-A C-terminal 12 aa] | 0.6856 ± 0.0022 | 0.648 ± 0.019
ISKKVFGNKLHQ [MTM1 C-terminal 12 aa] | 0.709 ± 0.0014 | 0.656 ± 0.022
ISLLSQFVYKGK [EXO1 C-terminal 12 aa] | 0.7 ± 0.016 | 0.678 ± 0.01
ISQWREWIDEKL [SRP102 C-terminal 12 aa] | 0.679 ± 0.025 | 0.72 ± 0.029
ITKQKALDYHYL [CBS2 C-terminal 12 aa] | 0.698 ± 0.0089 | 0.667 ± 0.016
ITSKPPATVEWE [GUA1 C-terminal 12 aa] | 0.695 ± 0.01 | 0.726 ± 0.015
IYKYCCCCFCCC [YCK3 C-terminal 12 aa] | 0.6598 ± 0.0038 | 0.594 ± 0.046
KALRELQAEMGL [SNF7 C-terminal 12 aa] | 0.696 ± 0.0095 | 0.688 ± 0.025
KASNGHIELIGE [CRF1 C-terminal 12 aa] | 0.674 ± 0.002 | 0.699 ± 0.034
KDAFLKELGLQN [PRD1 C-terminal 12 aa] | 0.69 ± 0.013 | 0.678 ± 0.028

Sequence | protein stability index [1] | protein stability index (genetic background: wild type)
KDEVTDDMQLEV [JLP2 C-terminal 12 aa] | 0.6997 ± 0.002 | 0.68 ± 0.03
KDSKNGASTLTS [YSW1 C-terminal 12 aa] | 0.691 ± 0.041 | 0.672 ± 0.018
KDVETLSVSDEK [SEO1 C-terminal 12 aa] | 0.686 ± 0.021 | 0.696 ± 0.043
KEALLTRLEHMI [SWC7 C-terminal 12 aa] | 0.682 ± 0.015 | 0.624 ± 0.011
KEEEGSFNNVIG [PRE2 C-terminal 12 aa] | 0.702 ± 0.012 | 0.66 ± 0.014
KEFQNSDIADLY [SGV1 C-terminal 12 aa] | 0.714 ± 0.01 | 0.686 ± 0.017
KFFLTISADVSF [YNL057W C-terminal 12 aa] | 0.6369 ± 0.0022 | 0.647 ± 0.03
KFRKDEDKSVKQ [TAN1 C-terminal 12 aa] | 0.68521 ± 0.00053 | 0.702 ± 0.056
KGDNITLITSAD [SME1 C-terminal 12 aa] | 0.688 ± 0.0079 | 0.685 ± 0.099
KHKNYLSFNFTK [YLL065W C-terminal 12 aa] | 0.698 ± 0.038 | 0.69 ± 0.012
KHKSSSYANRDS [DUS3 C-terminal 12 aa] | 0.6941 ± 0.00079 | 0.693 ± 0.026
KINKNGLLENIL [IES3 C-terminal 12 aa] | 0.702 ± 0.019 | 0.7227 ± 0.0051
KISFKWKKQRKR [UTP11 C-terminal 12 aa] | 0.71 ± 0.01 | 0.655 ± 0.015
KIYMANAPPPPV [VPS54 C-terminal 12 aa] | 0.706 ± 0.013 | 0.668 ± 0.02
KKFIYQQLDMFS [YOL024W C-terminal 12 aa] | 0.7181 ± 0.0053 | 0.7 ± 0.024
KKGLTRSVKFKN [SAS10 C-terminal 12 aa] | 0.708 ± 0.044 | 0.667 ± 0.017
KKHDWSDISQLW [OSH3 C-terminal 12 aa] | 0.7283 ± 0.0011 | 0.728 ± 0.016
KKKSQNKSRKDD [PBR1 C-terminal 12 aa] | 0.7005 ± 0.0067 | 0.691 ± 0.069
KKLAKSGIEFKW [NOP15 C-terminal 12 aa] | 0.704 ± 0.018 | 0.684 ± 0.063
KKTAIDKLITLL [AIM18 C-terminal 12 aa] | 0.681 ± 0.019 | 0.342 ± 0.017

Source: the supplement of paper PMC10724198
